Experimental data from paper PMC2752310.

Target: purified β protein (β clamp) (UniProt P0A988)
Assay: SPR

B1: His-6-tagged TnsE, purified (natural protein)
chain: MVRLATFNDNVQVVHIGHLFRNSGHKEWRIFVWFNPMQERKWTRFTHLPLLSRAKVVNSTTKQINKADRVIEFEASDLQRAKIIDFPNLSSFASVRNKDGAQSSFIYEAETPYSKTRYHIPQLELARSLFLINSYFCRSCLSSTALQQEFDVQYEVERDHLEIRILPSSSFPKGALEQSAVVQLLVWLFSDQDVMDSYESIFRHYQQNREIKNGVESWCFSFDPPPMQGWKLHVKGRSSNEDKDYLVEEIVGLEINAMLPSTTAISHASFQEKEAGDGSTQHIAVSTESVVDDEHLQLDDEETANIDTDTRVIEAEPTWISFSRPSRIEKSRRARKSSQTILEKEEATTSENSNLVSTDEPHLGGVLAAADVGGKQDATNYNSIFANRFAAFDELLSILKTKFACRVLFEETLVLPKVGRSRLHLCKDGSPRVIKAVGVQRNGSEFVLLEVDASDGVKMLSTKVLSGVDSETWRNDFEKIRRGVVKSSLNWPNSLFDQLYGQDGHRGVNHPKGLGELQVSREDMEGWAERVVREQFTH
With B1 the Kd was 2440 nM.
